# Earlier results as cited in publication PMC10530501.
# pKd: −log10 of the molar value.
# Experiments:
# C1q (Homo sapiens) = C1q (Homo sapiens) (UniProt P02745)
# TLR4 (Homo sapiens) = TLR4 (Homo sapiens) (UniProt O00206); assay: SPR
# Chain of UniProt O00206 (O00206 24-631): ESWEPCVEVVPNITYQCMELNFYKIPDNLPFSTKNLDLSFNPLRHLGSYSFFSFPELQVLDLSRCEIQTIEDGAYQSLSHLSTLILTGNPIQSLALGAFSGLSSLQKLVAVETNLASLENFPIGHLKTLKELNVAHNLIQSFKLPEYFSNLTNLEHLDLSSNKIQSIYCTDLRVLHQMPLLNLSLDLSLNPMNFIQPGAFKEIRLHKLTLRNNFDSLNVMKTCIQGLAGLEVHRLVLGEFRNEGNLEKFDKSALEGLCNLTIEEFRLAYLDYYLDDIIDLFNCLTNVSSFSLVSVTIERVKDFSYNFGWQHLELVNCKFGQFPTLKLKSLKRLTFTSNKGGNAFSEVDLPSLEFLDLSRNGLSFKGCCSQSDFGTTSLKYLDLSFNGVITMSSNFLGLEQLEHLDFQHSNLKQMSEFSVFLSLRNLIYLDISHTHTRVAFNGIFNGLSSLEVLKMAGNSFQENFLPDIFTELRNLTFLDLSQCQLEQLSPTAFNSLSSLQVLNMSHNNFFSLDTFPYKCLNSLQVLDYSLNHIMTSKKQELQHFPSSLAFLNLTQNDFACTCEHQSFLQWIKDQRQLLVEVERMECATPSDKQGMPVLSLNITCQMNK
# Chain of UniProt P02745 (P02745 23-245, chain 1 of 3): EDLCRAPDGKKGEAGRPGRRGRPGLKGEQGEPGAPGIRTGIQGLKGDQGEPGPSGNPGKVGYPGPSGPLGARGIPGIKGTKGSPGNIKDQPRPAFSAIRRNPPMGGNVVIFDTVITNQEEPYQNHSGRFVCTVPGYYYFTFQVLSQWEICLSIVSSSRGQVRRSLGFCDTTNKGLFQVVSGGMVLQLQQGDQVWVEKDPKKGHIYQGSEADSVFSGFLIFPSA
# Chain of UniProt P02745 (P02746 28-253, chain 2 of 3, further chain): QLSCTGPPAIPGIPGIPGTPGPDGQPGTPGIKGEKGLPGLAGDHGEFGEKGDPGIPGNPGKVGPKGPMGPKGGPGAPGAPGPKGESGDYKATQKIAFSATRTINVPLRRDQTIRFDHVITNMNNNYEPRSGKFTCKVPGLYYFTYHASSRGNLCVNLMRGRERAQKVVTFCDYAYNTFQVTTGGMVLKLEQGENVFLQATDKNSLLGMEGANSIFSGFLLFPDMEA
# Chain of UniProt P02745 (P02747 29-245, chain 3 of 3, further chain): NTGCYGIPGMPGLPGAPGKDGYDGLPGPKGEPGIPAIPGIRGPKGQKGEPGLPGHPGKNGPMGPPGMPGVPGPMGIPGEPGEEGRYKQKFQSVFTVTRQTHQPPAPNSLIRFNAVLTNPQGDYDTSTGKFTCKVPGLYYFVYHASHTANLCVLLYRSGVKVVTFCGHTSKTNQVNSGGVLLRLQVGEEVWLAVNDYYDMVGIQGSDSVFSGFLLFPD
pKd (C1q (Homo sapiens)),pKd (TLR4 (Homo sapiens)),Substance
6.70,–,HMGB1 (from UniProt P09429)
–,7.69,pCTS-L (from UniProt P07711)
